Measurements reported in PMC5749176.

Assays:
GR-DBD = GR-DBD (human, UniProt P04150 418-506); assay: EMSA
AR-DBD = AR-DBD (human, UniProt P10275 557-647); assay: EMSA
AR-DBD, sequence (P10275 557-647): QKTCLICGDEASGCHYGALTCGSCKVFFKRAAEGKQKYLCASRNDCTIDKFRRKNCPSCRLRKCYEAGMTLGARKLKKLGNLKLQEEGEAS

GR-DBD, sequence (P04150 418-506): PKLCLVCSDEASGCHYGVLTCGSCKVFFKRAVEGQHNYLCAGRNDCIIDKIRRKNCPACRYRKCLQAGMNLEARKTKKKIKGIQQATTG

B1: Shape-4 (dsDNA)
DNA 1: GGGCGTTCGGGACATAATGGCGGGAACCCCC
DNA 2: GGGGGTTCCCGCCATTATGTCCCGAACGCCC
- binding result (GR-DBD): binds

B2: Shape-1 (dsDNA)
DNA 1: GGCCAAAAAGAACACCGTGTACTTTTGGGCT
DNA 2: AGCCCAAAAGTACACGGTGTTCTTTTTGGCC
- binding result (AR-DBD): binds

B3: Shape-3 (dsDNA)
DNA 1: AAACAAAAAGAACACCGTTTTATTTTGGTGT
DNA 2: ACACCAAAATAAAACGGTGTTCTTTTTGTTT
- binding result (AR-DBD): binds

B4: Shape-2 (dsDNA)
DNA 1: GGGCGGAGGGTACACCGTGTACTCTTCCCCC
DNA 2: GGGGGAAGAGTACACGGTGTACCCTCCGCCC
- binding result (AR-DBD): binds
